Results: the supplement of paper PMC6757056
± gives the standard deviation of the averaged measurements.

B1: library; a variant is named by its letters at N, in order (parent)
chain: GCUGUCACCGAGAAACUGUGAAGUAUAUCUUAAACCUGGGCACUUAAAAGAUAUAUGGAGUUAGUAGUGCAACCUGCUCGGUCUGAUGAGUCCNNNNNNGGACGAAACAGC

Legend:
[1] = variants of: B1; assay: FACS-Seq fitted mean relative fluorescence mCherry/BFP without ligand (log10 relative fluorescence); HEK293T; ligand: cyclic di-GMP (c-di-GMP-II aptamer); higher = higher reporter protein expression; settings: ligand present: no
How it was run: (§1)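 Fluorescence is reported as a normalized fitted mean of sorted-bin read counts. Lentivirally transduced HEK293T libraries (mCherry ribozyme-switch reporter, EF1α-BFP marker) were enriched, treated with or without ligand for 48 h, and sorted into 6 mCherry/BFP bins for MiSeq sequencing of PCR-amplified genomic DNA. The normal fit was on log10(mCherry/BFP), scaled to five spiked-in control ribozymes.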

[2] = variants of: B1; assay: normalized RNA/DNA level without ligand (relative to sTRSVctl = 100) (log10 (% of sTRSVctl)); HEK293T; ligand: cyclic di-GMP (c-di-GMP-II aptamer); higher = less ribozyme self-cleavage, higher mRNA level; settings: reporter: mCherry (pCS4076), ligand present: no
Experimental: (§2)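 Hammerhead (sTRSV) ribozyme switch libraries with a ligand aptamer grafted on stem I and a randomized N4-6 loop II, cloned into the 3' UTR of mCherry and transiently transfected into HEK293T cells; RNA-Seq 72 h post transfection with ligand added 1 h before transfection; RNA read count / plasmid DNA read count normalized to the non-cleaving sTRSVctl (x100), log10; sequences with >100 DNA reads. FACS-Seq: lentiviral library sorted into 6 bins after 48 h ligand, log-normal fit mean of mCherry/BFP scaled to controls. Printed sequences are partial switch sequences.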

[3] = variants of: B1; assay: FACS-Seq fitted mean relative fluorescence mCherry/BFP with ligand (log10 relative fluorescence); HEK293T; ligand: cyclic di-GMP (c-di-GMP-II aptamer); ligand concentration (+) FACS-Seq: 1 mM; higher = higher reporter protein expression; settings: ligand present: yes
How it was run: as §1

[4] = variants of: B1; assay: normalized RNA/DNA level with ligand (relative to sTRSVctl = 100) (log10 (% of sTRSVctl)); HEK293T; ligand: cyclic di-GMP (c-di-GMP-II aptamer); ligand concentration (+) RNA-Seq: 1 mM; higher = less ribozyme self-cleavage, higher mRNA level; settings: reporter: mCherry (pCS4076), ligand present: yes
Experimental: as §2

Row | Variant | FACS-Seq fitted mean (log10) [1] | normalized RNA/DNA level without ligand (log10) [2] | FACS-Seq fitted mean (log10) [3] | normalized RNA/DNA level with ligand (log10) [4]
1 | GCUGCA | 0.156 ± 0.0048 | 1.77 ± 0.025 | 0.255 ± 0.059 | 1.85 ± 0.089
2 | UAAGUU | 0.0182 ± 0.011 | 1.577 ± 0.0025 | 0.229 ± 0.08 | 1.77 ± 0.094
3 | ACAAGC | -0.263 ± 0.13 | 1.44 ± 0.045 | -0.052 ± 0.14 | 1.7 ± 0.12
4 | UAUGAA | -0.265 ± 0.024 | 1.64 ± 0.018 | -0.0026 ± 0.016 | 1.78 ± 0.08
5 | AUGUUA | -0.342 ± 0.13 | 1.523 ± 0.0094 | -0.0703 ± 0.042 | 1.73 ± 0.1
6 | CGUUUU | -0.597 ± 0.085 | 1.46 ± 0.052 | -0.329 ± 0.11 | 1.61 ± 0.098
7 | UCCAAA | -0.284 ± 0.0034 | 1.57 ± 0.076 | 0.111 ± 0.079 | 1.75 ± 0.12
8 | ACGGUA | -0.397 ± 0.031 | 1.37 ± 0.069 | -0.0373 ± 0.057 | 1.57 ± 0.14
9 | GGUUCC | 0.28 ± 0.17 | 1.8648 ± 0.0011 | 0.396 ± 0.056 | 1.96 ± 0.085
10 | UUUGUA | -0.5429 ± 0.0021 | 1.708 ± 0.002 | -0.268 ± 0.088 | 1.85 ± 0.13
11 | AACGAG | -0.834 ± 0.078 | 1.53 ± 0.1 | -0.763 ± 0.099 | 1.71 ± 0.069
12 | CCGGUA | -0.505 ± 0.068 | 1.36 ± 0.12 | -0.223 ± 0.059 | 1.61 ± 0.087
13 | CACCUA | -0.26 ± 0.028 | 1.36 ± 0.15 | 0.0161 ± 0.13 | 1.58 ± 0.12
14 | CAUUAA | -0.604 ± 0.025 | 1.26 ± 0.11 | -0.31552 ± 2.8e-05 | 1.46 ± 0.12
15 | CAAACA | -0.651 ± 0.025 | 1.34 ± 0.069 | -0.439 ± 0.079 | 1.62 ± 0.11
16 | UCAGUA | -0.6 ± 0.076 | 1.33 ± 0.2 | -0.299 ± 0.076 | 1.59 ± 0.082
17 | GUACGA | -0.395 ± 0.055 | 1.43 ± 0.046 | -0.0985 ± 0.03 | 1.64 ± 0.077
18 | CGUCUA | -0.152 ± 0.067 | 1.26 ± 0.082 | 0.127 ± 0.011 | 1.45 ± 0.1
